This assay deals with FcγRI (UniProt P12314). The assay is described as follows: ELISA, coated protein, soluble FcγRI 2 µg/ml. For orientation: An ELISA detects its analyte on a solid surface through an enzyme-linked reagent.
Sequence of UniProt P12314 (P12314 16-288 limits assumed): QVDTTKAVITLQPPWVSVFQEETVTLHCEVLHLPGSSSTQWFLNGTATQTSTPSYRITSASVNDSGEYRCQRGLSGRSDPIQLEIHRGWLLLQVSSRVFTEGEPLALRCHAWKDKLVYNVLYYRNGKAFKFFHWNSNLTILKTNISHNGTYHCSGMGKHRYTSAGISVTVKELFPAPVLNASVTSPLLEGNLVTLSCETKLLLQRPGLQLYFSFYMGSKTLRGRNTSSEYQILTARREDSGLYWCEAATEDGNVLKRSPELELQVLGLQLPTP

Turning to “hGH-chimeric IgG4 variant: 4 amino acids at the N-terminus of IgG4 Fc CH2 domain replaced with 2 amino acids of IgD CH2 domain (Fc fusion)”, the FcγRI binding ability relative to hGH-IgG4Fc-wt (fold of hGH-IgG4Fc-wt) turned out to be 0.5.
